The target in assay [1] is T1, recombinant hSIRPg-His (Sino Biologicals, reference 11828-H08H) (human, UniProt Q9P1W8 29-360).
T1 construct: also called human SIRPg-His; not shown: His tag
In words: BLI (Blitz); SIRPg-His on Ni-NTA biosensor, antibody at 10 ug/ml or 20 ug/ml (Example 9) [B, table A].

For assay [2], the target named is T2, recombinant hSIRPa (Sino Biologicals, reference 11612-H08H) (human, UniProt P78324 31-370).
T2 construct: also called SIRPa-His; human SIRPa-His; not shown: His tag (histidine tail)
T2 sequence (P78324 31-370 limits assumed): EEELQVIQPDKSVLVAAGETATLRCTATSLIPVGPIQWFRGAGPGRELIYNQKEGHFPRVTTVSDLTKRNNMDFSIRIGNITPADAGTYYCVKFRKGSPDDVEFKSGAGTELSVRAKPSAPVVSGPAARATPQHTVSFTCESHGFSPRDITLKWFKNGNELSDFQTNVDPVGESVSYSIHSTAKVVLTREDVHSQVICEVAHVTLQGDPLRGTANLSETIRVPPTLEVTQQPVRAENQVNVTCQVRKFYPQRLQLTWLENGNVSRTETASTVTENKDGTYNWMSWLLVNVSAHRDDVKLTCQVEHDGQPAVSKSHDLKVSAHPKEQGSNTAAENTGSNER
As to the kind of experiment: competition ELISA on immobilized SIRPa-His; competitor biotinylated CD47-Fc at 6 ug/ml, streptavidin-peroxidase [second experiment table]. On the procedure: Method: For competitive ELISA assay, recombinant hSIRPa (Sino Biologicals, Beijing, China; reference 11612-H08H) was immobilized on plastic at 0.5 μg/ml in carbonate buffer (pH9.2).
(In general: An ELISA detects its analyte on a solid surface through an enzyme-linked reagent.)

In assay [3] the target is T2, recombinant hSIRPa (Sino Biologicals, …). As to the kind of experiment: ELISA on immobilized hSIRPa-His, anti-human IgG detection, first experiment; first experiment. The method, then: Method: The binding activity of the anti-SIRPa antibodies was assessed by ELISA.
Assay [4] addresses T1, recombinant hSIRPg-His (Sino …). As to the kind of experiment: Blitz, SIRPg-His on Ni-NTA biosensor. The method, then:
Method: This method was performed with a Blitz (Forte Bio; USA; reference C22-2 No 61010-1). Recombinant hSIRPg-His (Sino Biologicals, Beijing, China; reference 11828-H08H) was immobilized at 10 μg/ml by histidine tail into a Ni-NTA biosensor (Forte Bio; USA; reference 18-0029) for 30 seconds. Then, an anti-SIRPa antibody was associated at 20 μg/mL for 120 seconds. The dissociation of anti-SIRPa antibody was made in kinetics buffer for 120 seconds. Analysis of data was made with the Blitz pro 1.2 software, which calculated association constant (ka) and dissociation constant (kd) and determined the affinity constant KD […].

The target in assay [5] is T2, recombinant hSIRPa (Sino Biologicals, …). In words: SPR (Biacore); SIRPa-His immobilized on CM5 chip, antibody injected. The essentials:
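His-tagged recombinant human SIRPa was coupled to a CM5 chip at 5 μg/ml (500 RU). Anti-SIRP antibodies were injected at several concentrations at 40 μl/min on a BIAcore 3000.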
Background: In SPR one partner is held on a chip, and binding of the other changes the refractive index at the surface.

Assay [6] concerns the target T3, recombinant hSIRPb-His (Antibodies-online, reference ABIN3077231) (human, UniProt Q5TFQ8 30-371).
T3 construct: also called SIRPb-His (Blitz); not shown: His tag
As to the kind of experiment: BLI (Blitz); SIRPb-His on Ni-NTA biosensor, antibody at 20 ug/ml [B, table A].

T1 sequence (Q9P1W8 29-360 limits assumed): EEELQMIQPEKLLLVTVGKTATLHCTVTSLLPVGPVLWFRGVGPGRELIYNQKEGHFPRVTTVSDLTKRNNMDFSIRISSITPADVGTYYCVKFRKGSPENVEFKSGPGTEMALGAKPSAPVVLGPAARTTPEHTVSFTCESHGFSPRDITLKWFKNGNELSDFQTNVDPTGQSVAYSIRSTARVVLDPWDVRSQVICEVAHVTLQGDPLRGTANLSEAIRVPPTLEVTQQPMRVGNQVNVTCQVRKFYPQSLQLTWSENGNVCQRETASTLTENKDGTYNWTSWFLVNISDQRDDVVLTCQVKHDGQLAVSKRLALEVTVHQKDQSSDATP
T3 sequence (Q5TFQ8 30-371): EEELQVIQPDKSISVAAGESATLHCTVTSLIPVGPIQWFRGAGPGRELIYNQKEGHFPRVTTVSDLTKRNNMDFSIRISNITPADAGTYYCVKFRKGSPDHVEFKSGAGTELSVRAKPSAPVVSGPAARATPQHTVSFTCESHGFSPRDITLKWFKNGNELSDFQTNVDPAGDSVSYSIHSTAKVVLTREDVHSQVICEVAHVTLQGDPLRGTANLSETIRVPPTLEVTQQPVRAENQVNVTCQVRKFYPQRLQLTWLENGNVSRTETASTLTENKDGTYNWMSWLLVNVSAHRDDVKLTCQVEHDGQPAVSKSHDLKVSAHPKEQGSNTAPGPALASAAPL

B1: HFLB (antibody, human IgG4 S228P, kappa, V domains shown)
VH: EVQLVQSGAEVKKPGESLRISCKASGYSFTSYWVHWVRQMPGKGLEWMGNIDPSDSDTHYSPSFQGHVTLSVDKSISTAYLQLSSLKASDTAMYYCVRGGTGTMAYFAYWGQGTLVTVSS
VL: DVVMTQSPLSLPVTLGQPASISCRSSQSLVHSYGNTYLYWFQQRPGQSPRLLIYRVSNRFSGVPDRFSGSGSGTDFTLKISRVEAEDVGVYYCFQGTHVPYTFGGGTKVEIKR
notes: humanized 18D5 variant
The term koff denotes the rate constant with which the complex falls apart. By kon is commonly meant the second-order rate constant of association. What is called IC50 is the concentration that gives 50% inhibition. As usually defined, the EC50 is the concentration giving half of the maximal effect. As a reminder, the Kd is the free concentration of one partner at which half of the binding sites on the other are occupied at equilibrium, for simple one-to-one binding. Take B1: the koff in assay [1] came out at 0.0123 s⁻¹; in assay [5], 0.000249 s⁻¹; in assay [6], 0.00174 s⁻¹. Moreover, the kon worked out at 119000 M⁻¹ s⁻¹ in assay [1], 791000 M⁻¹ s⁻¹ in assay [5] and 66900 M⁻¹ s⁻¹ in assay [6]. Moreover, the IC50 in assay [2] was determined as 0.183 µg/mL. Moreover, the EC50 in assay [3] is 0.004 µg/mL. Further, the Kd in assay [4] is 104 nM; in assay [5], 0.315 nM; in assay [6], 26 nM.

Values taken from patent US20210179728A1 (OSE IMMUNOTHERAPEUTICS, published 2021).
